Molecular target: T1, Slit2-His (UniProt O94813)
T1 chain: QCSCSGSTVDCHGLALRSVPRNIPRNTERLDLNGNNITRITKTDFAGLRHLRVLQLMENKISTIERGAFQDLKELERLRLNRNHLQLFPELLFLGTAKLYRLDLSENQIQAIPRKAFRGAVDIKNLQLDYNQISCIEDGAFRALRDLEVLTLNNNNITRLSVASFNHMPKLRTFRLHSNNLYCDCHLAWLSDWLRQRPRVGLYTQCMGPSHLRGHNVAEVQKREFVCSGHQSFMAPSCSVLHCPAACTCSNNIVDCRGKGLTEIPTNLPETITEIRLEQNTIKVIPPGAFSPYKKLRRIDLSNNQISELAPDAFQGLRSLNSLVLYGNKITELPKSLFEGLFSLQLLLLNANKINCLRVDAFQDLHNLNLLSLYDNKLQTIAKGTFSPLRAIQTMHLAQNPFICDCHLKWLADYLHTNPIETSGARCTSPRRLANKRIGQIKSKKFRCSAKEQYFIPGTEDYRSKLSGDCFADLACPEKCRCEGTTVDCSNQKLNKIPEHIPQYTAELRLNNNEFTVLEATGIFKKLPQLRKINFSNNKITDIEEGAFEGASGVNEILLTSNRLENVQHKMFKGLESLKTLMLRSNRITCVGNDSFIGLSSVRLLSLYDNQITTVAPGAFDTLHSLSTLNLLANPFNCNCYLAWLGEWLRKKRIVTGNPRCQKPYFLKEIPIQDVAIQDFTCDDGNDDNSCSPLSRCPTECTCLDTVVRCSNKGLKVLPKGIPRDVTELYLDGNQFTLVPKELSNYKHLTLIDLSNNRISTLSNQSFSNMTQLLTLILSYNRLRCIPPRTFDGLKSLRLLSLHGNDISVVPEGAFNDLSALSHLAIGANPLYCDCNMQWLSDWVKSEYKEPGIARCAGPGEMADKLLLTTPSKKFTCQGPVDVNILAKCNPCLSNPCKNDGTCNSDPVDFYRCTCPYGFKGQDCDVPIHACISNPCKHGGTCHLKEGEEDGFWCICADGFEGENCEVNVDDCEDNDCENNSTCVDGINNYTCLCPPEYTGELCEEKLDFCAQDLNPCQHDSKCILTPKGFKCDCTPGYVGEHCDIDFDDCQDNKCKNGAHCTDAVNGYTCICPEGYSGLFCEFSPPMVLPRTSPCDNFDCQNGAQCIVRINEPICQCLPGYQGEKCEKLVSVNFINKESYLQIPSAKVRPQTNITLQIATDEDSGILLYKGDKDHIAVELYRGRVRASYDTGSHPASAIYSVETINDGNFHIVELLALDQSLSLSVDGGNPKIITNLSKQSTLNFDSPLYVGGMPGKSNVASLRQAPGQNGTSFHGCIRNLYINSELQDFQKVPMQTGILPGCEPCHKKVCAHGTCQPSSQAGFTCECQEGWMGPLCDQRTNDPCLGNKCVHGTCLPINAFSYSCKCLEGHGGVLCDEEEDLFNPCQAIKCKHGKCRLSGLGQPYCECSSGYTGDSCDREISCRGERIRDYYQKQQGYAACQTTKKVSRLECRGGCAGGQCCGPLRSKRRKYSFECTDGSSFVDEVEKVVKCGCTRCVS
Experiment: SPR

B1: Robo4-Fc (protein)
chain: QDSPPQILVHPQDQLFQGPGPARMSCQASGQPPPTIRWLLNGQPLSMVPPDPHHLLPDGTLLLLQPPARGHAHDGQALSTDLGVYTCEASNRLGTAVSRGARLSVAVLREDFQIQPRDMVAVVGEQFTLECGPPWGHPEPTVSWWKDGKPLALQPGRHTVSGGSLLMARAEKSDEGTYMCVATNSAGHRESRAARVSIQEPQDYTEPVELLAVRIQLENVTLLNPDPAEGPKPRPAVWLSWKVSGPAAPAQSYTALFRTQTAPGGQGAPWAEELLAGWQSAELGGLHWGQDYEFKVRPSSGRARGPDSNVLLLRLPEKVPSAPPQEVTLKPGNGTVFVSWVPPPAENHNGIIRGYQVWSLGNTSLPPANWTVVGEQTQLEIATHMPGSYCVQVAAVTGAGAGEPSRPVCLLLEQAMERATQEPSEHGPWTLEQLRATLKRPEVIATCGVALWLLLLGTAVCIHRRRRARVHLGPGLYRYTSEDAILKHRMDHSDSQWLADTWRSTSGSRDLSSSSSLSSRLGADARDPLDCRRSLLSWDSRSPGVPLLPDTSTFYGSLIAELPSSTPARPSPQVPAVRRLPPQLAQLSSPCSSSDSLCSRRGLSSPRLSLAPAEAWKAKKKQELQHANSSPLLRGSHSLELRACELGNRGSKNLSQSPGAVPQALVAWRALGPKLLSSSNELVTRHLPPAPLFPHETPPTQSQQTQPPVAPQAPSSILLPAAPIPILSPCSPPSPQASSLSGPSPASSRLSSSSLSSLGEDQDSVLTPEEVALCLELSEGEETPRNSVSPMPRAPSPPTTYGYISVPTASEFTDMGRTGGGVGPKGGVLLCPPRPCLTPTPSEGSLANGWGSASEDNAASARASLVSSSDGSFLADAHFARALAVAVDSFGFGLEPREADCVFIDASSPPSPRDEIFLTPNLSLPLWEWRPDWLEDMEVSHTQRLGRGMPPWPPDSQISSQRSQLHCRMPKAGASPVDYS
binding result: no binding

— EP2468776
